{"source": "paper PMC9585074", "binders": {"B1": {"name": "NIMA-related kinase 9 (NEK9), human, endogenous in HEK293 cells (enzyme)", "chain": "MSVLGEYERHCDSINSDFGSESGGCGDSSPGPSASQGPRAGGGAAEQEELHYIPIRVLGRGAFGEATLYRRTEDDSLVVWKEVDLTRLSEKERRDALNEIVILALLQHDNIIAYYNHFMDNTTLLIELEYCNGGNLYDKILRQKDKLFEEEMVVWYLFQIVSAVSCIHKAGILHRDIKTLNIFLTKANLIKLGDYGLAKKLNSEYSMAETLVGTPYYMSPELCQGVKYNFKSDIWAVGCVIFELLTLKRTFDATNPLNLCVKIVQGIRAMEVDSSQYSLELIQMVHSCLDQDPEQRPTADELLDRPLLRKRRREMEEKVTLLNAPTKRPRSSTVTEAPIAVVTSRTSEVYVWGGGKSTPQKLDVIKSGCSARQVCAGNTHFAVVTVEKELYTWVNMQGGTKLHGQLGHGDKASYRQPKHVEKLQGKAIRQVSCGDDFTVCVTDEGQLYAFGSDYYGCMGVDKVAGPEVLEPMQLNFFLSNPVEQVSCGDNHVVVLTRNKEVYSWGCGEYGRLGLDSEEDYYTPQKVDVPKALIIVAVQCGCDGTFLLTQSGKVLACGLNEFNKLGLNQCMSGIINHEAYHEVPYTTSFTLAKQLSFYKIRTIAPGKTHTAAIDERGRLLTFGCNKCGQLGVGNYKKRLGINLLGGPLGGKQVIRVSCGDEFTIAATDDNHIFAWGNGGNGRLAMTPTERPHGSDICTSWPRPIFGSLHHVPDLSCRGWHTILIVEKVLNSKTIRSNSSGLSIGTVFQSSSPGGGGGGGGGEEEDSQQESETPDPSGGFRGTMEADRGMEGLISPTEAMGNSNGASSSCPGWLRKELENAEFIPMPDSPSPLSAAFSESEKDTLPYEELQGLKVASEAPLEHKPQVEASSPRLNPAVTCAGKGTPLTPPACACSSLQVEVERLQGLVLKCLAEQQKLQQENLQIFTQLQKLNKKLEGGQQVGMHSKGTQTAKEEMEMDPKPDLDSDSWCLLGTDSCRPSL"}}, "target": "human myc-tagged essential myosin light chain (ELC) (human) (UniProt P08590)", "sequence (P08590 whole entry)": "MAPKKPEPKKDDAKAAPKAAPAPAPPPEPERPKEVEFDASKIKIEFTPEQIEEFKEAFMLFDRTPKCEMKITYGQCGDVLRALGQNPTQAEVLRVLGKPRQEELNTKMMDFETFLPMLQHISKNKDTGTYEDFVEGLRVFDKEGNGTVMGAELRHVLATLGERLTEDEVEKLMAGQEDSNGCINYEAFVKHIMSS", "assay": "co-IP; human myc-tagged ELC overexpressed in HEK293 cells, Myc-Trap magnetic beads, 1 mg lysate over night at 4 °C, immunoblot for endogenous kinases; basal or ionophore (ionomycin 1-5 µM, 4 mM CaCl2, 10 min) stimulation"}
{"binder": "B1", "values": [{"measurement": "averaged intensity of precipitated NEK9 normalized to actin of input, before doubling the ionophore concentration", "value": 0.35}, {"measurement": "averaged intensity of precipitated NEK9 normalized to actin of input, doubled ionophore concentration", "value": 1.01}]}
